Measurements taken from the supplement of paper PMC12042874.
± gives the uncertainty stated by the source.

Experiment: amyloid nucleation score (Sup35N fusion, yeast selection) (log enrichment); library NNK1; higher = more nucleation; inactive = no reads after selection
Procedure, shortened: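 Yeast lacking psi expressed peptides of 20 random codons fused to Sup35N, received 100 μM copper sulfate for 24 hours, and were then grown for 7 days at 30°C on medium lacking adenine and uracil. Illumina sequencing of input and output plasmid inserts provided the reads. Nucleation scores are DiMSum log enrichments of output over input, centred on the mode of non-aggregating sequences. Any sequence with under 100 input reads was excluded.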

| Substance | amyloid nucleation score |
| --- | --- |
| ICWNHTTVGFGMIMVVYYL | 1.95 ± 0.091 |
| IDMIVGNLN | inactive |
| IDMTQGMRLQWMFNRALLCW | 0.813 ± 0.72 |
| IDVFLNALSVWNVIVDLIIV | -0.225 ± 0.42 |
| IEDAALRSKEPGFVQHNYSS | 4.17 ± 0.077 |
| IEDFEKGISVRVVTLWSWVV | -0.93 ± 0.39 |
| IETVLIVAY | 0.355 ± 0.53 |
| IFAPAIMSFYSLVIQWPYPG | 1.99 ± 0.45 |
| IFAVHMLYSECTGSFRYHWS | 0.055 ± 0.79 |
| IFCSNECVSTVDADTPGLSL | 9.289 ± 0.044 |
| IFGKTFTGYMVRFGVVHDLA | 0.358 ± 0.41 |
| IFGYMSGS | 0.543 ± 0.63 |
| IFISIVLLF | 4.8 ± 0.079 |
| IFKDLCLTTSGLDIDPNFND | 0.762 ± 0.51 |
| IFKGGFTWYCCDKARGLKGR | 0.411 ± 0.34 |
| IFNML | -0.083 ± 0.93 |
| IFSENRDVGNVFSVGQIVIF | 3.72 ± 0.079 |
| IFSGECHVYVGSRQGWALVI | -0.22 ± 0.98 |
| IFSPVSCDMVTDGMGTSCWY | 0.144 ± 0.9 |
| IFTVSRGPVTLCWDWWETHA | 0.196 ± 0.56 |
| IGCQLNIRVCLKVILLYVEA | 0.259 ± 0.95 |
| IGCSI | inactive |
| IGIGWATSLCLDRDLFVTSG | 0.029 ± 1.2 |
| IGILMVACRLHNVSLYLCSG | -0.514 ± 0.96 |
| IGQFMVDWYNIGGREPVPGS | 0.301 ± 0.78 |

| Substance | amyloid nucleation score |
| --- | --- |
| IGRRDWH | 0.925 ± 0.49 |
| IGWCWVIMQGNIEQVDRG | 4.72 ± 0.074 |
| IGYLDMGNRFGYLLARC | -1.1 ± 0.62 |
| IGYLDYLCCGISLFFQETEA | 0.427 ± 0.48 |
| IHESTWSVKGSWVHQRGPGP | 2.56 ± 0.21 |
| IHLGCCMLFRRLGECRLVV | -0.409 ± 0.29 |
| IHLNQ | 1.15 ± 0.55 |
| IHYIPAFYRAKSILLFVYAC | -0.241 ± 0.5 |
| IIFGCCVF | 7.982 ± 0.062 |
| IIFKSVNYLLPIVVKNMCGT | 1.16 ± 0.13 |
| IIMVYSRSLLMLKLSLVVPC | inactive |
| IINKSLWLPRNLAFGNY | 0.117 ± 0.47 |
| IIRGVTAGALFYYFSVILLR | -0.214 ± 0.77 |
| IIRLVQNRSIMSFAMGISWV | 2.4 ± 0.33 |
| IISKGSWSKSTDFGGLM | -1.83 ± 1.7 |
| IISRLCLQLPATRT | 1.21 ± 0.67 |
| IISTWSYGSES | 2.43 ± 0.14 |
| IIWRDNNTPYD | 1.96 ± 0.7 |
| IKATGTRPRIHRYFGNC | -0.173 ± 0.58 |
| IKFRCYLCG | 0.44 ± 0.9 |
| IKILLNWHV | -0.628 ± 1.7 |
| IKLNTEALESYLLVFRMKRW | -0.605 ± 0.46 |
| IKVSIIGWGYILAPGGESNV | -1.28 ± 0.69 |
| ILAIKWTSVWCMESDFPIEV | -0.402 ± 0.58 |
| ILDMMAKV | 1.56 ± 0.76 |

| Substance | amyloid nucleation score |
| --- | --- |
| ILELGGCLVYYRGN | 0.087 ± 0.69 |
| ILESRVPCCLKRGLNKEIGL | 0.672 ± 0.46 |
| ILFDLQPKFVRR | 0.693 ± 0.48 |
| ILGTIYDIMQNGDIHRFLAY | -0.834 ± 1.2 |
| ILHFWLTYK | 4.63 ± 0.1 |
| ILHLLRFNDIAFVKRLSAVL | -0.067 ± 0.17 |
| ILICKLHRRVIRGWNFRSDR | 0.086 ± 0.48 |
| ILKSFLD | -0.071 ± 0.42 |
| ILMFWSPVGSRLTLSTSKLQ | -0.234 ± 1.6 |
| ILMILNLRTTSPWDWNWVSV | 0.296 ± 0.83 |
| ILNTTHCHKHKKTCEHSACD | -0.883 ± 0.48 |
| ILRAFWESGHTGGVWATVSS | -1.19 ± 0.77 |
| ILREQNSLDTSRFYRGRSLV | 0.187 ± 0.65 |
| ILRQIDIDATYVIFLEMSRL | 5.854 ± 0.047 |
| ILSEPNELTGACLAS | 0.29 ± 0.78 |
| ILSPRVPINRICAVEQRRGI | -0.952 ± 0.83 |
| ILVTLHMTCLRRSRNTLSFY | -0.45 ± 1.5 |
| ILWLVMWVWTSRFVRCRRHS | -1.94 ± 2.4 |
| ILYNA | -0.166 ± 1.2 |
| ILYVVWFYVLLRWVRVLLLR | 0.884 ± 0.49 |
| IMAGP | -0.624 ± 0.58 |
| IMDSSMGGSSKMYKVVANDL | 0.311 ± 0.64 |
| IMKRCCGESMMPDAGWSGSA | -0.401 ± 1 |
| IMMSYRFHFNNSERIRGCVR | -0.321 ± 0.26 |
| INAQAVIGNFRGRYSVYNVH | 4.23 ± 0.065 |

| Substance | amyloid nucleation score |
| --- | --- |
| INDCYFMWGNLFCYVCVMLL | 1.66 ± 0.46 |
| INDSRFVAYTCLRVTEKYGL | 0.855 ± 0.22 |
| INFQNDELWVLETIGFHTYP | -0.256 ± 0.49 |
| INIAMVMPLDGKLIQIDDTC | 0.177 ± 0.31 |
| INRSSVESLVLTDLKHWTSG | 0.504 ± 0.49 |
| INTSYIEEHYELVGFVHWNV | -0.449 ± 0.79 |
| INWRN | -0.471 ± 0.34 |
| IPGTPMT | inactive |
| IPKVIGWFTVVTTGVVVDIS | 1.27 ± 0.7 |
| IQRKSITTWSPH | 3.43 ± 0.2 |
| IQSRDGVSYKQDVWTLGCVL | 0.658 ± 0.55 |
| IRANLEDVLHIFIPVEGHSR | -0.655 ± 1.1 |
| IRCLSMIWVTKDVLIIWRSQ | 0.159 ± 0.93 |
| IRGLRVLHSVFLALLVCKNL | -0.136 ± 0.59 |
| IRGNVKETVIFFKTRFAFCW | 0.147 ± 0.73 |
| IRPNMRAVKIEVQDVGSQCV | 0.428 ± 0.6 |
| IRQQKGFGCNAFWMVLG | 0.83 ± 0.78 |
| IRRATF | 0.421 ± 0.84 |
| IRRYPAFFFNVYPSTSMFCS | -1.21 ± 0.88 |
| IRSLLYYLFGFLMFWVIRIW | 0.226 ± 0.66 |
| IRTCLVSIVATRCKVGVESP | 0.403 ± 0.34 |
| IRWRSSFVQSMMVTHQHQSF | 1.85 ± 0.16 |
| IRYQFVWSMSLCGLEMHWSS | 2.55 ± 0.21 |
| ISCGCMRVLTRDNLFLKFRF | 0.12 ± 0.58 |
| ISDFAYWQILCRVSDIFKVQ | 2.31 ± 0.13 |

| Substance | amyloid nucleation score |
| --- | --- |
| ISGFGVIVWGVVSWVWYGTN | -0.268 ± 0.7 |
| ISHLDG | -1.04 ± 2.4 |
| ISHSIAVRNNLLLFGPCQNR | 2.12 ± 0.12 |
| ISINHVTCRLVFETGKWRWG | 3.45 ± 0.086 |
| ISLCCTSTYLTVSYGTDRS | 6.487 ± 0.061 |
| ISLLGIWV | 0.939 ± 0.31 |
| ISLRGRCITSKGSSYYAIKY | inactive |
| ISLSSGLALKPS | 1.41 ± 0.48 |
| ISLWLFVFCCHIISISKWLL | inactive |
| ISMGWWIDYGPY | -0.724 ± 0.81 |
| ISNIF | 1.67 ± 0.45 |
| ISNMETGHLEYSLRLAPKYC | -0.658 ± 0.82 |
| ISQYILSHLCQFIVSIGLAT | -0.454 ± 0.88 |
| ISRDNNQTGLMGGLERRTES | 0.533 ± 0.65 |
| ISRGDVGVKESSGCNCVLPH | -0.587 ± 1.3 |
| ISRGYHRYLFSKSNECGRLN | inactive |
| ISRSNTLYAIFCARPAKVSL | -0.235 ± 0.6 |
| ISRVIFLR | 1.41 ± 0.78 |
| ISTAVAIAGQQARNWGAHLR | -0.196 ± 0.46 |
| ISTFLRFSQSDEQYYPTE | 0.496 ± 0.48 |
| ISWRNYWY | 1.01 ± 0.22 |
| ISWVSPDLVLSYPVYQPDGL | 1.93 ± 0.23 |
| ITGFAPVRVVCEYLS | 0.182 ± 0.6 |
| ITMSYMSAKCVNWVVWACRL | 0.286 ± 0.31 |
| ITMVISLCALFMSRSIIFKG | -0.154 ± 1 |

| Substance | amyloid nucleation score |
| --- | --- |
| ITMYANMNSGQFTMLESMPD | -0.303 ± 0.26 |
| ITVLSS | 1.47 ± 0.46 |
| ITVRAISMWWRDSS | 0.263 ± 0.4 |
| IVDSHVSIATYRLEELRRTL | 2.11 ± 0.27 |
| IVFFWMMLVGLNRLGVNRVG | -0.846 ± 1.7 |
| IVGSVVRGMGLVIIRSTCFW | 3.15 ± 0.18 |
| IVKGLSCKIDWLCASMHWMR | 0.053 ± 0.36 |
| IVNRHEL | 0.63 ± 0.9 |
| IVRDFMVLINR | -0.911 ± 1.3 |
| IVRIESVEFSDYADFAFEVR | 0.67 ± 0.59 |
| IVRQYANLGRCCRTGVVYFQ | 0.386 ± 0.63 |
| IVSNDKWHMWLNRL | -0.022 ± 0.24 |
| IVVGRGKQAIASMG | -0.432 ± 0.89 |
| IVVNLGWFQIGIYLPARSDT | -1.24 ± 1.9 |
| IVYSLLYVRMSSNSMWVSV | 0.958 ± 0.9 |
| IWDCLFPSSSAMSYPVDPKA | 0.547 ± 0.42 |
| IWGNVSLIRGFCPVKLWSQR | -0.082 ± 0.46 |
| IWLSLYIAFYGCLHGWFPSQ | 0.645 ± 0.6 |
| IWRLWWAKGPGSRLLRCRLY | -0.167 ± 0.42 |
| IWTKSCDCVCSCGGYQGCYR | -0.038 ± 0.19 |
| IWTNTLNFTARFANVLAGTG | -0.705 ± 1.2 |
| IWVFMVVIMC | 1.07 ± 0.79 |
| IWYRQVCANLLSN | inactive |
| IYFLR | -0.103 ± 0.42 |
| IYFVIGYVNVCWGSATEDMT | 5.46 ± 0.084 |

| Substance | amyloid nucleation score |
| --- | --- |
| IYGELLHLWLISEFCDVRNC | 0.788 ± 0.79 |
| IYIMKHASSSMNGVSVQDFM | 0.695 ± 0.67 |
| IYMVGAEPVRERDIVFVPTL | 1.24 ± 0.98 |
| IYMVSC | 0.077 ± 0.27 |
| IYNIVGSLMSSAVFPGQSIS | -1.38 ± 1.2 |
| IYNLDWSF | -0.99 ± 1.3 |
| IYPCICSRNFDPKLYKVNTR | 0.605 ± 0.66 |
| IYQQIYN | -0.807 ± 2.4 |
| IYRFSCETHIFQYSRQVLFG | 0.786 ± 0.63 |
| IYRMRDNMNSRLRVYFNRVF | inactive |
| IYTDSVGLFCSYADMPSDRV | 0.372 ± 1.4 |
| IYTLGKKGMNHHDVGQWLFT | 1.55 ± 0.5 |
| IYYRTMYYMVVSSIN | 0.394 ± 0.65 |
| KACDRFNLTYKTVSVRMGDC | 0.39 ± 0.28 |
| KAFNVFER | 0.225 ± 0.53 |
| KAMLNNKWHLCSHVRTDHAV | 0.172 ± 0.32 |
| KAPKYRDRRVGVNVKYWYMP | 0.058 ± 0.66 |
| KAPNRE | -0.063 ± 0.66 |
| KAVYLRVRGTHCVNNVALWK | 3.43 ± 0.18 |
| KAYRV | -0.633 ± 0.39 |
| KCAWNQVNDSNLVAYRASC | 5.13 ± 0.097 |
